We go through 1 substance from patent US20120093805A1.

By EC50 (read off the curve) is commonly meant the concentration at which the effect is half-maximal. A low value points to higher potency in that assay.

Assay [1] addresses cynomolgus CD27 (C-terminal His tag) with normal O-linked sugar chains expressed on CHO/DG44 cells (cynomolgus). As to the kind of experiment: flow cytometry (FCM) on cynomolgus CD27/DG44 cells; number printed beside the broken bar.
The target in assay [2] is human sugar chain-deficient CD27 expressed on Lec8 cells (human) (UniProt P26842). The assay is described as follows: flow cytometry (FCM) on CD27/Lec8-4 cells [A) (b]. Background: In flow cytometry, cells or beads pass a laser one at a time.
Assay [3] addresses human CD27 with normal O-linked sugar chains expressed on CHO/DG44 cells (human) (UniProt P26842). The assay is described as follows: flow cytometry (FCM) on CD27/DG44-4 cells [B) (b].

human sugar chain-deficient CD27 expressed on Lec8 cells (human), sequence (P26842 20-260 H233R limits assumed): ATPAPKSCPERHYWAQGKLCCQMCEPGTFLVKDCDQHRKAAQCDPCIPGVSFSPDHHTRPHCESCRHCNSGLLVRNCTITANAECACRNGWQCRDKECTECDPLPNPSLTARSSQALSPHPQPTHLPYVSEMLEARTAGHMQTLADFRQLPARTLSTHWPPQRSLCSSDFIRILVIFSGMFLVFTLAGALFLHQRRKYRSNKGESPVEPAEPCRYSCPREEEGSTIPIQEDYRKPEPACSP
human CD27 with normal O-linked sugar chains expressed on CHO/DG44 cells (human), sequence (P26842 20-260 H233R limits assumed): as above

For the substance Anti-CD27 Antibody (O323), in assay [1], the Mean Fluorescence Intensity was determined as 133. In addition, the EC50 (read off the curve) in assay [2] and in assay [3] was 0.1 µg/mL each time.
